Assay results from patent US20080071063A1.

Key:
FcγRIIIA [1] = target: FcγRIIIA (UniProt P08637); assay: assay not described; affinity relative to wild type Medi2
FcγRIIIA [2] = target: FcγRIIIA (UniProt P08637); assay: assay not described; affinity relative to wild type Medi3

UniProt P08637, sequence (P08637 17-208 limits assumed): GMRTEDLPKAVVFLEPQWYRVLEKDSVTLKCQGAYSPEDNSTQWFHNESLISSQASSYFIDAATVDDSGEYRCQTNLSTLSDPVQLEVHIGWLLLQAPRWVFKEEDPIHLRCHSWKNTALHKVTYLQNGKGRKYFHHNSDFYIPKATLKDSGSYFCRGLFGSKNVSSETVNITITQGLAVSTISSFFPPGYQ

Substance: Medi2-V3 ("V3" Fc variant of anti-Integrin αVβ3 antibody Medi2, aspartate 239, leucine 330, glutamate 332)
- fold higher binding affinity than Medi2 (FcγRIIIA [1]): 78 fold

Substance: Medi3-V1 (Fc variant of anti-EphA2 antibody Medi3, glutamate at residue 332)
- fold higher binding affinity than Medi3 (FcγRIIIA [2]): 8.8 fold
